Results published in patent US20220185910A1 (EUREKA THERAPEUTICS, published 2022).

Biological target: T1, human prostate specific membrane antigen (PSMA) (human, UniProt Q04609 1-750)
T1 construct: PSMA was on the cell surface: LNCaP and 22Rv1 (endogenous), PC3-PSMA and Jurkat-PSMA (lentiviral transduction); also called hPSMA
Experiment: flow cytometry of phage scFv clones after cell panning on Jurkat-PSMA (parental Jurkat as negative selection)
Source text: A collection of human scFv antibody phage display libraries (diversity=10×10¹⁰) constructed by Eureka Therapeutics (i.e., the E-ALPHA® phage display library) was used for the selection of human mAbs specific to PSMA. Specifically, the E-ALPHA® phage display library was used to pan against a Jurkat cell line that has been engineered to express PSMA. The parental Jurkat cell line was used for negative selection. […] The VL in each scFv is underlined, the VH in each scFv is double underlined, and the linker is in bold italic type. The CDRs are in underlined bold type and double underlined bold type.

T1 sequence (Q04609 whole entry): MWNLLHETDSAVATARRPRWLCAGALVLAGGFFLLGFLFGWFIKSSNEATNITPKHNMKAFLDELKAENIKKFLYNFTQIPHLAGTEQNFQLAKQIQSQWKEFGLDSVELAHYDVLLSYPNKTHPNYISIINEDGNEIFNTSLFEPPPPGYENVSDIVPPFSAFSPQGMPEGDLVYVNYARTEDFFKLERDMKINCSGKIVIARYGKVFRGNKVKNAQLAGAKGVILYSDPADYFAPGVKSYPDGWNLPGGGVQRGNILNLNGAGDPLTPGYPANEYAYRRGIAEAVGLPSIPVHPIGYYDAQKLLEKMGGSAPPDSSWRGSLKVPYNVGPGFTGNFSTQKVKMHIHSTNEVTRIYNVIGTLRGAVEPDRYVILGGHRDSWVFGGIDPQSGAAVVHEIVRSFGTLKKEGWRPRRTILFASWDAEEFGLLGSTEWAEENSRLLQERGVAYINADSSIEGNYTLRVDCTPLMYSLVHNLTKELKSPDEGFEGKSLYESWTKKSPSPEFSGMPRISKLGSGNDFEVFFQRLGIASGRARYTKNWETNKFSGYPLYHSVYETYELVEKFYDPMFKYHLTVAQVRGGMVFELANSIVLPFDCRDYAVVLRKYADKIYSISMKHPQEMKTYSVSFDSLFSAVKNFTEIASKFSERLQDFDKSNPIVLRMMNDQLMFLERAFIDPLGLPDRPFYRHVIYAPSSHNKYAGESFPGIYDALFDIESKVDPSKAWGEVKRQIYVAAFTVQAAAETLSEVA

B1: Clone A anti-PSMA scFv (scFv)
scFv: QSVLTQPPSVSGAPGQRVTISCTGSSSNIGAGYDVHWYQQLPGTAPKLLIYGNSNRPSGVPDRFSGSKSGTSASLAITGLQAEDEADYYCQSYDSSLSGYVFGTGTKVTVLGSRGGGGSGGGGSGGGGSLEMAEVQLVQSGAEVKKPGESLKISCKGSGYSFTSYWIGWVRQMPGKGLEWMGIIYPGDSDTRYSPSFQGQVTISADKSISTAYLQWSSLKASDTAMYYCARSMGSSLYASSDVWGQGTLVTVSS
notes: Human scFv (VL-linker-VH) isolated from the E-ALPHA phage display library; the phage coat fusion is not described; also called phage clone A
binding result: binds
